The source of these data is the supplement of paper PMC10724198.

± gives the standard deviation of the averaged measurements.
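Further: PSI is a weighted mean of sequencing reads over stability bins, variants kept only with over 10 reads, mCherry proximal and sfGFP distal, peptide attached via GGGS linker.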

In the data set the test system is Saccharomyces cerevisiae. Description: protein stability index of tFT-peptide fusion (C-terminal peptide) (PSI (0-1 scale)); higher = more stable (slower turnover). To be noted: genetic background: wild type; temperature: 30 C.
Regarding LFLFPPVLTFPL, the protein stability index amounted to 0.625 ± 0.035.
The result for LFLRPSGLPTLL reads 0.69 ± 0.083; that for LFLSAFFFRFFD, 0.629 ± 0.045; that for LFPAGSSLCGAI, 0.753 ± 0.061.
Under LFPGVHRVEDRA stands 0.675 ± 0.034; under LFPRSVPIAINL, 0.6259 ± 0.0045; under LFPSFRSLSFVI, 0.672 ± 0.035.
The result for LFPSPPPPRSSL reads 0.7697 ± 0.005; that for LFQVRLVDLSRI, 0.674 ± 0.049; that for LFRLFFVKACRF, 0.516 ± 0.0025.
For LFRLRLFPHPHF, the protein stability index amounted to 0.645 ± 0.087.
The result for LFRPGDLVYHSV reads 0.727 ± 0.026.
For the sequence LFSLFLRSPLTS, the protein stability index amounted to 0.664 ± 0.035.
The result for LFSRDASSFRFF reads 0.658 ± 0.032; that for LFVFSVCSWPRV, 0.579 ± 0.04.
LFVSCGGCLAMF yielded a protein stability index of 0.687 ± 0.0077.
Sequence LFWARLSLVSLS returned a protein stability index of 0.495 ± 0.041.
Regarding LFYHLFWLFCSC, the protein stability index was found to be 0.634 ± 0.046.
In the case of LFYRTLPLPWPA, the protein stability index was 0.742 ± 0.02.
Regarding LGAGLIGCALVE, the protein stability index is 0.645 ± 0.036.
Under LGAIGFVVVGGL stands 0.622 ± 0.029; under LGALTPSIAGGP, 0.64 ± 0.01.
In turn, LGCGDSRSMVSL came in with a protein stability index of 0.6875 ± 0.0033.
Under LGEAGGWSLGFG stands 0.73 ± 0.018.
In turn, LGFDRGGGGAGM showed a protein stability index of 0.675 ± 0.062.
LGFFGGGRGAGG yielded a protein stability index of 0.677 ± 0.016.
In turn, LGFLRRERLVPS had a protein stability index of 0.697 ± 0.057.
Sequence LGFSCHGRPPCS yielded a protein stability index of 0.699 ± 0.085.
The result for LGFVADLFVWSV reads 0.673 ± 0.069; that for LGFVRLLFPSFS, 0.758 ± 0.022; that for LGFYGSYGRWWV, 0.779 ± 0.085.
Sequence LGGCGWVDWWGL had a protein stability index of 0.732 ± 0.0096.
Consider LGGGGGGGACGE, for which the protein stability index was determined as 0.655 ± 0.022.
Take LGGTGGFRGVRG: the protein stability index amounted to 0.691 ± 0.022.
As for LGHITLSERFGS, the protein stability index amounted to 0.705 ± 0.21.
As for LGKWWDEECGEI, the protein stability index turned out to be 0.7834 ± 0.0042.
The sequence LGLGERLSINTF yielded a protein stability index of 0.70035 ± 0.00022.
Turning to LGLSFYPPLIIS, the protein stability index was determined as 0.559 ± 0.0094.
The sequence LGMCGTCQREVG displayed a protein stability index of 0.708 ± 0.027.
Sequence LGNFSLSARSYM gave a protein stability index of 0.727 ± 0.028.
LGNMRTVEGWGG gave a protein stability index of 0.684 ± 0.051.
With LGPDSCRLPLAQ, the protein stability index was 0.746 ± 0.067.
LGRKWDCLGRYV had a protein stability index of 0.637 ± 0.06.
The sequence LGRPWRECIQIG registered a protein stability index of 0.66 ± 0.015.
The sequence LGRTFEEEKYAY gave a protein stability index of 0.767 ± 0.13.
Consider LGSAAVPGLCRL, for which the protein stability index was determined as 0.853 ± 0.0092.
Consider LGSCPPPPAPPP, for which the protein stability index stood at 0.638 ± 0.037.
In turn, LGSCRCFAFVSL displayed a protein stability index of 0.659 ± 0.023.
For LGSFGLASVDGL, the protein stability index amounted to 0.713 ± 0.02.
Under LGSITDRLLRRR stands 0.772 ± 0.14; under LGSTPAVKPPCL, 0.688 ± 0.019; under LGSYSALKIGWG, 0.592 ± 0.029.
As for LGTLLWGGAGRG, the protein stability index came out at 0.713 ± 0.01.
Regarding LGVALARCLWGT, the protein stability index amounted to 0.677 ± 0.022.
Sequence LGVGFFLGFRTG yielded a protein stability index of 0.6508 ± 0.0048.
The result for LGVGGPSVREGE reads 0.706 ± 0.034; that for LGVGGRWGGPGA, 0.691 ± 0.059.
For LGVRGSMGPGGG, the protein stability index amounted to 0.683 ± 0.082.
Turning to LGVWVGGRGVRG, the protein stability index amounted to 0.747 ± 0.037.
Under LGWPWGGRGEGL stands 0.606 ± 0.0069; under LGWRLFNDVRRG, 0.707 ± 0.013.
As for LGYRCETNYVPD, the protein stability index was 0.631 ± 0.023.
Sequence LHETKRQKKRKR displayed a protein stability index of 0.7187 ± 0.0062.
Sequence LHLPFLPSLPHP returned a protein stability index of 0.727 ± 0.042.
Sequence LHPPAPRSPPPR registered a protein stability index of 0.639 ± 0.041.
Under LHPPLPRPPYPP stands 0.66 ± 0.029.
With LHPRPPLLPSLP, the protein stability index was 0.608 ± 0.07.
The result for LHRFTYAEVVWA reads 0.536 ± 0.031; that for LHSFLLSVGRGF, 0.681 ± 0.015.
Regarding LIGRPLPRTFMH, the protein stability index was 0.766 ± 0.074.
Under LIKATAYRTNRQ stands 0.745 ± 0.044; under LIKVGRRREGTG, 0.691 ± 0.059; under LILFLTTSSPLV, 0.608 ± 0.017.
The result for LILSSGSPAFKT reads 0.66 ± 0.039; that for LIPTPPPHPPSP, 0.679 ± 0.023; that for LISGGLSWGDCW, 0.743 ± 0.0099.
For the sequence LISNTGTKWAMI, the protein stability index came to 0.674 ± 0.053.
In turn, LISSTLRDQKDE showed a protein stability index of 0.701 ± 0.047.
Regarding LISVWQLDVRSG, the protein stability index is 0.579 ± 0.0023.
On to LKALNKFEDTGN, for which the protein stability index stood at 0.668 ± 0.018.
